Experiment [1] concerns the target full length GPVI on transfected DT40 cells (with FcR-γ chain) (UniProt Q9HCN6). Kind of experiment: cell-based or functional assay.
Experiment [2] concerns the target T1, recombinant GPVI-Fc (dimeric; D1 and D2 domains of GPVI fused to the Fc domain from IgG) (human, UniProt Q9HCN6 22-203).
T1 construct: range 22-203; also called GPVI-Fcγ; dimeric GPVI; not shown: Factor Xa cleavable junction and Fc domain from IgG (Sigplg+ vector)
T1 sequence (looked up): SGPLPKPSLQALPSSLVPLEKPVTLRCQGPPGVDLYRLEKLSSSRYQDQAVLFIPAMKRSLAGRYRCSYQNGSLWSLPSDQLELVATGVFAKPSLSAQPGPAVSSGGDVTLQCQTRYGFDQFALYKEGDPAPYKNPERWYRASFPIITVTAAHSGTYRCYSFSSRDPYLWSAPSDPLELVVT
Kind of experiment: solid-phase binding assay: GPVI-Fc coated surface, nanobody 100 nM per the legend (1 µM per paragraph 122), anti-His HRP, Fc-surface signal subtracted, normalised to Nb35 [cont) b]. As to the method:
FIG. 1. […] Results were plotted as a percentage of total signalling in the presence of collagen only. Dotted lines represent 100, 60 and 20% signalling levels. Data represent mean values of three experiments performed in triplicate±standard deviation. b) Surface binding assay of one nanobody (100 nM) from each family binding to a GPVI-Fc coated-surface. All the binding results have been normalised to Nb35 which gave the highest readout. Binding of each nanobody to the Fc domain-coated surface was tested and subtracted from the GPVI-Fc readings. Binding was detected using HRP conjugated anti-His antibody. The average binding of all the nanobodies to BSA represents a non-specific binding control. Data represent mean values of three experiments±standard deviation.
The recombinant GPVI used for immunisation and testing consisted of the extracellular D1 and D2 domains fused with the Fc domain from IgG. Immunisation with GPVI-Fc yielded 54 distinct nanobody sequences. The Fc domain was used to test whether the nanobodies recognise this region. The 54 nanobodies were categorized into 33 distinct binding classes on the basis of their complementary determining loop (CDR) 3 regions, which is the region that confers ligand specificity. Nanobodies (1 μM) from each binding class were tested for their ability to recognise a recombinant GPVI-Fc coated surface (FIG. 1b). The degree of nanobody binding varied between classes and could be categorised into strong (>50%), moderate (>20%) and weak binders (<20%). Strong binders included Nb2, 21, 35 and 52. Moderate binders included Nb7, 18, 28 and 54. All other nanobodies were considered to be weak binders.

In experiment [3] the target is T2, full length GPVI on transfected DT40 cells (with FcR-γ chain) (UniProt Q9HCN6 21-339).
T2 sequence (looked up): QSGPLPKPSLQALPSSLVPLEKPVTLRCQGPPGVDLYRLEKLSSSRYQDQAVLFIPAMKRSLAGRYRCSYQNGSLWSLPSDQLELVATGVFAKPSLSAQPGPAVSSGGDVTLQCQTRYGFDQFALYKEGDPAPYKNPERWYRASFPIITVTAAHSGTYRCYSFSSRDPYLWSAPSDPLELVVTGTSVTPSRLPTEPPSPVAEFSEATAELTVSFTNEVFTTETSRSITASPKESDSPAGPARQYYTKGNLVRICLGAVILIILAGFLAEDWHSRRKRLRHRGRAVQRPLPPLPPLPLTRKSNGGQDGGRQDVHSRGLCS
Kind of experiment: cell-based or functional assay.

The target of experiment [4] is T1, recombinant GPVI-Fc (dimeric; D1 and D2 …). Kind of experiment: SPR (Biacore T200), GPVI-Fc amine-coupled on CM5 chip, Nb2 in solution, 1:1 kinetic fit. As to the method:
Surface plasmon resonance experiments were performed using a Biacore T200 instrument (GE Healthcare). GPVI was immobilised directly onto the CM5 chip using amine-coupling. Reference surfaces were blocked using 1M ethanolamine pH 8. All sensograms shown are double reference subtracted and at least two replicates were injected per cycle as well as experimental replicates of n=3. Experiments were performed at 25° C. with a flow rate of 30 μL/min in HBS-P running buffer (10 mM HEPES pH 7.4, 0.15 M NaCl, 0.005% v/v surfactant P20). Each concentration of Nb2 was run as follows; 120 sec injection, 900 sec dissociation. Kinetic analysis was performed using the Biacore T200 Evaluation software using a global fitting to a 1:1 binding model.

For experiment [5], the target named is T3, GPVI on human washed platelets (human, UniProt Q9HCN6 21-339).
T3 sequence (looked up): T2 sequence (looked up)
Kind of experiment: cell-based or functional assay.

Experiment [6] concerns the target monomeric GPVI (GPVI-Fc cleaved with Factor Xa, Fc removed) (human) (UniProt Q9HCN6). Kind of experiment: SPR (Biacore T200), GPVI amine-coupled on CM5 chip, Nb2 in solution, 1:1 kinetic fit; immobilised monomeric GPVI, not GPVI-Fc.
Experiment [7] has as its target T1, recombinant GPVI-Fc (dimeric; D1 and D2 …). Kind of experiment: solid-phase binding assay, displacement of GPVI-Fc (100 nM) from a collagen surface.
Experiment [8] has the same target. In words: solid-phase binding assay, displacement of GPVI-Fc (100 nM) from a collagen surface (legend of Fig. 4a; differs from the text).

Where a chain is given by its changes, count along the chain named.

With “collagen (Horm collagen I, fibrillar) (ligand)”, in experiment [1], the fold increase in NFAT activity (luciferase reporter) was found to be 8.3 fold.

B1: Nanobody 33 (Nb33) (VHH)
VHH: QVQLQESGGGLVQAGDSLRLSCAASGRTFSSYVMGWFRQAPGKEREFVAAISWSGGSTYYADSVKGRFTISRDNAKNTVYLQMNSLKPEDTAVYYCAAADPPSFYSDYDWPRDHEYDYWGQGTQVTVSSAAAYPYDVPDYGSHHHHHH
B1: the binding result in experiment [2] was “binds”. Moreover, in experiment [3], the “inhibition of collagen-stimulated NFAT reporter activity (nanobody 100 nM, collagen 10 µg/ml)” value is over 40%.

B2: Nanobody 19 (Nb19) (VHH)
VHH: QVQLQESGGGLVQAGGSLRLSCAASGRTFSSDAMGWFRQAPGKEREFVAAIRWSGGSTYYADSVKGRFTISRGNAKNTVYLQMNSLKPEDTAVYYCASSLLNSYYPPDHTSYEYDYWGQGTQVTVSSAAAYPYDVPDYGSHHHHHH
With B2, the binding result in experiment [2] is on record as “binds”. For the same molecule, the “inhibition of collagen-stimulated NFAT reporter activity (nanobody 100 nM, collagen 10 µg/ml)” value in experiment [3] was over 40%.

B3: Nanobody 28 (Nb28) (VHH)
VHH: QVQLQESGGGLVQAGDSLRLSCAASGTYSMGWFRQAPGKEREFVAAISWSGGRTNYADSVKGRFTISRDNAKNTVYLQMNSLKPEDTAVYYCSAAIYDNVSSRIGSYTYWGQGTQVTVSS
Take B3: the binding result in experiment [2] was “binds”.

B4: Nanobody 5 (Nb5) (VHH)
VHH: QVQLQESGGGLVQPGGSLRLSCAASGFTLDSHTIGWFRQAPGKEREGVSGINSSDGSTYYADSVKGRFTISRDNAKNTVYLQMDSLKVEDTAVYYCATTPFSLRGPTWVTPDEFDYWGQGTQVTVSSAAAYPYDVPDYGSHHHHHH
For B4, the “inhibition of collagen-stimulated NFAT reporter activity (nanobody 100 nM, collagen 10 µg/ml)” value in experiment [3] was over 40%.

B5: Nanobody 2 (Nb2), with C-terminal HA and His tags (VHH)
VHH: QVQLQESGGGLVQPGGSLRLSCAAAGFTFDYYAIAWFRQAPGKEREGVSCISSSDGTTYYADSVKGRFTISKDNAKNTMYLQMNSLKPEDTAVYYCATSPLYSTNDRCISEDYDYWGQGTQVTVSSAAAYPYDVPDYGSHHHHHH
notes: Tagged form (detected with anti-His in ELISA and flow cytometry)
A word on the Kd: it is the concentration at which binding is half-saturated. The term IC50 denotes the midpoint of a concentration-inhibition curve. In experiment [1], B5 registered an inhibition of collagen-stimulated NFAT reporter activity (nanobody 100 nM, collagen 10 µg/ml) of over 80%. For the same molecule, the Kd in experiment [4] worked out at 0.7 nM. Moreover, in experiment [5], the “IC50, inhibition of washed platelet aggregation to CRP (10 µg/ml)” value (shortened to “IC50, inhibition … (10 µg/ml)”) stood at 1 nM and the “IC50, inhibition of washed platelet aggregation to collagen (5 µg/mL)” value (shortened to “IC50, inhibition … (5 µg/mL)”) was 172 nM. In experiment [6], this molecule came in with a Kd of 0.58 nM. Moreover, in experiment [7], the IC50 was 18 nM.

B6: Nanobody 25 (Nb25) (VHH)
VHH: B5 VHH with A25S, F29L, Y31N, A35G, T57R, K72R, T104D, N105S, S110W, D112E
B6: in experiment [2], the binding result is given as “binds”. Further, the “inhibition of collagen-stimulated NFAT reporter activity (nanobody 100 nM, collagen 10 µg/ml)” value in experiment [3] was over 40%.

B7: Nanobody 21 (Nb21), with C-terminal HA and His tags (VHH)
VHH: QVQLQESGGGLVQPGGSLRLSCAASGRTFTRSIMGWFHQAPGKEREFLAGISWSGANTYYADSVRGRFTISRDNAKNTVSLQMNSLNPEDTAVYYCAADPSHPGSLISTRRSDYDSWGRGTQVTVSSAAAYPYDVPDYGSHHHHHH
Regarding B7, the IC50 in experiment [8] came to 62 nM. Moreover, in experiment [5], the “IC50, inhibition … (10 µg/ml)” value was 22 nM and the “IC50, inhibition … (5 µg/mL)” value was 85 nM. In experiment [3], the “inhibition of collagen-stimulated NFAT reporter activity (nanobody 100 nM, collagen 10 µg/ml)” value is over 80%. The IC50 in experiment [7] was 61 nM.

B8: Nanobody 44 (Nb44) (VHH)
VHH: QVQLQESGGGLVQPGGALRLSCAASGFTLDYYAIGWFRQAPGKEREAVSCISSSDGSTYYADSVKGRFTISRDNAKNTVYLQMNSLKPEDTAVYYCATDPFYSDINCKSYEYAYWGQGTQVTVSSAAAYPYDVPDYGSHHHHHH
Consider B8, for which the binding result in experiment [2] was “binds”. The “inhibition of collagen-stimulated NFAT reporter activity (nanobody 100 nM, collagen 10 µg/ml)” value in experiment [3] was over 40%.

B9: Nanobody 22 (Nb22) (VHH)
VHH: QVQLQESGGGLVQAGGSLRLSCAPSGRTISSVDVGWFRQAPGKEREFVAHVTWSGGSTYAADSVKGRFTVSRDNAKNTVYLQMNSLKPEDTAVYYCAAALNGAFRDSWYPALWDEYDYWGQGTQVTVSSAAAYPYDVPDYGSHHHHHH
As for B9, the binding result in experiment [2] is listed as “binds”. In experiment [3], the “inhibition of collagen-stimulated NFAT reporter activity (nanobody 100 nM, collagen 10 µg/ml)” value is over 40%.

B10: Nanobody 35 (Nb35), with C-terminal HA and His tags (VHH)
VHH: QVQLQESGGGLVQAGGSLRLSCAASGVTFDSAAMAWFRQVPGKEREFVAVISTESGGRTDHADSVKGRFLISRDNARHMVYLQMNSLNPEDTAVYYCASSLLYCSASGCYANRDSYDYWGQGTQVTVSSAAAYPYDVPDYGSHHHHHH
For B10, in experiment [5], the “IC50, inhibition … (10 µg/ml)” value stood at 1 nM and the “IC50, inhibition … (5 µg/mL)” value is 115 nM. Besides, the IC50 in experiment [7] is 39 nM.

B11: Nanobody 1 (Nb1) (VHH)
VHH: QVQLQESGGGLVQAGGSLRLSCASSGFTFSGYQLAWFRHVAPGKEREFVAAIRWSGGITWYADSVKGRFTISRDNAKNTMYLQMNSLKPEETAVYYCAASPLYSNNYLLPDNYDYWGQGTQVTVSSAAAYPYDVPDYGSHHHHHH
In the case of B11, in experiment [3], the “inhibition of collagen-stimulated NFAT reporter activity (nanobody 100 nM, collagen 10 µg/ml)” value was over 40%.

The record behind these values is US20240067721A1 (UNIVERSITY OF BIRMINGHAM, published 2024).
